Read-outs that look alike come from different tables or passages of the source.
Experiments:
[1] = biological target: T1, human FcRn (soluble, complexed with β2-microglobulin) (human, UniProt P61769 21-119); experiment: SPR pH7.0
[2] = biological target: T2, mouse FcγRIII (mouse, UniProt P08508 31-215); experiment: SPR pH7.4
T2 construct: bought; also called mFcgRIII
T2 sequence (looked up): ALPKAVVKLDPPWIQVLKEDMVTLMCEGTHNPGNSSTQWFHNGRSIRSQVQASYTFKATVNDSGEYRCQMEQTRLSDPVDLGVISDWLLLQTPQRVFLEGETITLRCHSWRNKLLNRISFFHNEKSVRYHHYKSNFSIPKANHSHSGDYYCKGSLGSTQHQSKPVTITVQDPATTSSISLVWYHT

[3] = biological target: T3, mouse FcγRIV (mouse, UniProt A0A0B4J1G0 21-203); experiment: SPR pH7.4
T3 construct: bought; also called mFcgRIV
T3 sequence: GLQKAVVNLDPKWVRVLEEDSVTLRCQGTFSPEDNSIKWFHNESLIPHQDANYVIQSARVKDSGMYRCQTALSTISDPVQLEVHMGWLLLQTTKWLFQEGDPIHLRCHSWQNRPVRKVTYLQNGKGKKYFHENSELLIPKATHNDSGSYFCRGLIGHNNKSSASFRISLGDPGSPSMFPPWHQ

[4] = biological target: T4, mouse FcγRI (mouse, UniProt P26151 25-297); experiment: SPR pH7.4
T4 construct: bought; also called mFcgRI
T4 sequence (looked up): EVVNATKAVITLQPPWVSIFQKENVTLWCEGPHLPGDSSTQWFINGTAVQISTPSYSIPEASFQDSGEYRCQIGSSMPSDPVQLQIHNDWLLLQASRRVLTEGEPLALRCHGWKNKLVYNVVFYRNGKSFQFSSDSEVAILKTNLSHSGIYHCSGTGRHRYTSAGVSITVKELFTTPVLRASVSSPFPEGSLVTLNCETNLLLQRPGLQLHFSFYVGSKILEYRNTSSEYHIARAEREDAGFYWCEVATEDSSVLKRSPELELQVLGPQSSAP

[5] = biological target: T5, mouse FcγRIIb (mouse, UniProt P08101 40-217, limits assumed); experiment: SPR pH7.4
T5 construct: bought; also called mFcgRIIb; mFcgRII
T5 sequence (looked up): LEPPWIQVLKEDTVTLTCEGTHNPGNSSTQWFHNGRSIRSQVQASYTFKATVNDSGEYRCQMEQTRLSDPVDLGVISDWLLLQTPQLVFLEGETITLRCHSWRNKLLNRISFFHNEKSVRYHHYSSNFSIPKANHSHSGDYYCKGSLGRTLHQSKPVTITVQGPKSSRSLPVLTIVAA

[6] = biological target: T1, human FcRn (soluble, complexed with …); experiment: SPR pH7.0; remark: listed apart in the source
[7] = biological target: T1, human FcRn (soluble, complexed with …); experiment: SPR pH7.0; remark: listed apart in the source
[8] = biological target: T1, human FcRn (soluble, complexed with …); experiment: SPR pH7.0; remark: listed apart in the source
[9] = biological target: T1, human FcRn (soluble, complexed with …); experiment: SPR pH7.0; remark: listed apart in the source
[10] = biological target: T2, mouse FcγRIII; experiment: SPR pH7.4; remark: listed apart in the source
[11] = biological target: T3, mouse FcγRIV; experiment: SPR pH7.4; remark: listed apart in the source
[12] = biological target: T4, mouse FcγRI; experiment: SPR pH7.4; remark: listed apart in the source
[13] = biological target: T5, mouse FcγRIIb; experiment: SPR pH7.4; remark: listed apart in the source
[14] = biological target: T1, human FcRn (soluble, complexed with …); experiment: SPR pH7.0; remark: listed apart in the source
[15] = biological target: T1, human FcRn (soluble, complexed with …); experiment: SPR pH7.0; remark: listed apart in the source
[16] = biological target: T1, human FcRn (soluble, complexed with …); experiment: SPR pH7.0; remark: listed apart in the source
[17] = biological target: T1, human FcRn (soluble, complexed with …); experiment: SPR pH7.0; remark: listed apart in the source
[18] = biological target: T6, soluble human IL-6 receptor (human, UniProt P08887 20-357); experiment: SPR 37C, 3 µM CaCl2
T6 construct: also called hsIL-6R
T6 sequence: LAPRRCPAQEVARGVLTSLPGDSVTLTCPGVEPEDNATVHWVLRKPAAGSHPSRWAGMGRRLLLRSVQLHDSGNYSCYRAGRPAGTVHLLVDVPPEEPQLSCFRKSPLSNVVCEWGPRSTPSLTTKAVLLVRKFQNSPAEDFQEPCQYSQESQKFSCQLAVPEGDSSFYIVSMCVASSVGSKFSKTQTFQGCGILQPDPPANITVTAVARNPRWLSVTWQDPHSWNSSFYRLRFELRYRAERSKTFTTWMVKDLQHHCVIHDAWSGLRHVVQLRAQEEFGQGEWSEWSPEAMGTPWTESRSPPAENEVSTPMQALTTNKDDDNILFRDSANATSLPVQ

[19] = biological target: T6, soluble human IL-6 receptor; experiment: SPR 37C, 3 µM Ca, estimated from Req

T1 sequence (P61769 21-119, one chain of several): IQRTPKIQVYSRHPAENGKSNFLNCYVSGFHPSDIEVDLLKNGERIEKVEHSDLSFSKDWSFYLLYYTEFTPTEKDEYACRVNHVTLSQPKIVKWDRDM

B1: VH3/L(WT)-IgG1-F21 (antibody)
chain 1: QVQLQESGPGLVKPSETLSLTCAVSGHSISHDHAWSWVRQPPGEGLEWIGFISYSGITNYNPSLQGRVTISRDNSKNTLYLQMNSLRAEDTAVYYCARSLARTTAMDYWGEGTLVTVSSASTKGPSVFPLAPSSKSTSGGTAALGCLVKDYFPEPVTVSWNSGALTSGVHTFPAVLQSSGLYSLSSVVTVPSSSLGTQTYICNVNHKPSNTKVDKKVEPKSCDKTHTCPPCPAPELLGGPSVFLFPPKPKDTLYISRTPEVTCVVVDVSHEDPEVKFNWYVDGVEVHNAKTKPREEQYNSTYRVVSVLTPLHQDWLNGKEYKCKVSNKALPAPIEKTISKAKGQPREPQVYTLPPSRDELTKNQVSLTCLVKGFYPSDIAVEWESNGQPENNYKTTPPVLDSDGSFFLYSKLTVDKSRWQQGNVFSCSVMHEALHYHYTQKSLSLSP
chain 2: not shown
Which results are given for B1?
Kd [1]: 30 nM; binding amount [2]: 371 RU; binding amount [3]: 242 RU; binding amount [4]: 315 RU; binding amount [5]: 112 RU; Kd [6]: 30 nM; Kd [7]: 30 nM

B2: VH3/L(WT)-IgG1-F140 (antibody)
chain 1: QVQLQESGPGLVKPSETLSLTCAVSGHSISHDHAWSWVRQPPGEGLEWIGFISYSGITNYNPSLQGRVTISRDNSKNTLYLQMNSLRAEDTAVYYCARSLARTTAMDYWGEGTLVTVSSASTKGPSVFPLAPSSKSTSGGTAALGCLVKDYFPEPVTVSWNSGALTSGVHTFPAVLQSSGLYSLSSVVTVPSSSLGTQTYICNVNHKPSNTKVDKKVEPKSCDKTHTCPPCPAPELLGGPKVFLFPPKPKDTLYISRTPEVTCVVVDVSHEDPEVKFNWYVDGVEVHNAKTKPREEQYNSTYRVVSVLTPLHQDWLNGKEYKCKVSNKALPAPIEKTISKAKGQPREPQVYTLPPSRDELTKNQVSLTCLVKGFYPSDIAVEWESNGQPENNYKTTPPVLDSDGSFFLYSKLTVDKSRWQQGNVFSCSVMHEALHYHYTQKSLSLSP
chain 2: not shown
Which results are given for B2?
Kd [1]: 36 nM; Kd [8]: 36 nM; binding amount [2]: 46.6 RU; binding amount [3]: 108 RU; binding amount [5]: -1.8 RU; Kd [7]: 36 nM

B3: VH3/L(WT)-IgG1-F939 (antibody)
chain 1: QVQLQESGPGLVKPSETLSLTCAVSGHSISHDHAWSWVRQPPGEGLEWIGFISYSGITNYNPSLQGRVTISRDNSKNTLYLQMNSLRAEDTAVYYCARSLARTTAMDYWGEGTLVTVSSASTKGPSVFPLAPSSKSTSGGTAALGCLVKDYFPEPVTVSWNSGALTSGVHTFPAVLQSSGLYSLSSVVTVPSSSLGTQTYICNVNHKPSNTKVDKKVEPKSCDKTHTCPPCPAPELRGGPKVFLFPPKPKDTLYISRTPEVTCVVVDVSHEDPEVKFNWYVDGVEVHNAKTKPREEQYNSTYRVVSVLTVLHQDWLNGKEYKCKVSNKALPAPIEKTISKAKGQPREPQVYTLPPSRDELTKNQVSLTCLVKGFYPSDIAVEWESNGQPENNYKTTPPVLDSDGSFFLYSKLTVDKSRWQQGNVFSCSVMHEALHYHVTQKSLSLSP
chain 2: not shown
Which results are given for B3?
Kd [9]: 153 nM; binding amount [10]: -24.9 RU; binding amount [11]: -7.3 RU; binding amount [12]: -2 RU; binding amount [13]: -6.3 RU; Kd [14]: 150 nM; Kd [15]: 150 nM

B4: VH3/L(WT)-IgG1-F157 (antibody)
chain 1: QVQLQESGPGLVKPSETLSLTCAVSGHSISHDHAWSWVRQPPGEGLEWIGFISYSGITNYNPSLQGRVTISRDNSKNTLYLQMNSLRAEDTAVYYCARSLARTTAMDYWGEGTLVTVSSASTKGPSVFPLAPSSKSTSGGTAALGCLVKDYFPEPVTVSWNSGALTSGVHTFPAVLQSSGLYSLSSVVTVPSSSLGTQTYICNVNHKPSNTKVDKKVEPKSCDKTHTCPPCPAPELLGGPSVFLFPPKPKDTLMISRTAEVTCVVVDVSHEDPEVKFNWYVDGVEVHNAKTKPREEQYNSTYRVVSVLTPLHQDWLNGKEYKCKVSNKALPAPIEKTISKAKGQPREPQVYTLPPSRDELTKNQVSLTCLVKGFYPSDIAVEWESNGQPENNYKTTPPVLDSDGSFFLYSKLTVDKSRWQQGNVFSCSVLHEALHYHYTQKSLSLSP
chain 2: not shown
B4 was tested. Which Kd [1] did it give?
Its Kd is 150 nM.

And the Kd [8]?
The Kd was 150 nM.

And the binding amount [2]?
The binding amount was 276 RU.

And the binding amount [3]?
The binding amount was 243 RU.

And the binding amount [4]?
The binding amount was 315 RU.

What about the binding amount [5] of the same binder?
The binding amount was 129 RU.

B5: VH3/L(WT)-IgG1-F424 (antibody)
chain 1: QVQLQESGPGLVKPSETLSLTCAVSGHSISHDHAWSWVRQPPGEGLEWIGFISYSGITNYNPSLQGRVTISRDNSKNTLYLQMNSLRAEDTAVYYCARSLARTTAMDYWGEGTLVTVSSASTKGPSVFPLAPSSKSTSGGTAALGCLVKDYFPEPVTVSWNSGALTSGVHTFPAVLQSSGLYSLSSVVTVPSSSLGTQTYICNVNHKPSNTKVDKKVEPKSCDKTHTCPPCPAPELLGGPKVFLFPPKPKDTLMISRTAEVTCVVVDVSHEDPEVKFNWYVDGVEVHNAKTKPREEQYNSTYRVVSVLTPLHQDWLNGKEYKCKVSNKALPAPIEKTISKAKGQPREPQVYTLPPSRDELTKNQVSLTCLVKGFYPSDIAVEWESNGQPENNYKTTPPVLDSDGSFFLYSKLTVDKSRWQQGNVFSCSVLHEALHYHYTQKSLSLSP
chain 2: not shown
With B5 as the binder, how does the Kd [1] read?
Its Kd is 94 nM.

What about the Kd [16] of the same binder?
The Kd was 94 nM.

What about the binding amount [3] of the same binder?
Its binding amount is 138 RU.

And the binding amount [5]?
The binding amount was -2.5 RU.

B6: VH3/L(WT)-IgG1-F821 (antibody)
chain 1: QVQLQESGPGLVKPSETLSLTCAVSGHSISHDHAWSWVRQPPGEGLEWIGFISYSGITNYNPSLQGRVTISRDNSKNTLYLQMNSLRAEDTAVYYCARSLARTTAMDYWGEGTLVTVSSASTKGPSVFPLAPSSKSTSGGTAALGCLVKDYFPEPVTVSWNSGALTSGVHTFPAVLQSSGLYSLSSVVTVPSSSLGTQTYICNVNHKPSNTKVDKKVEPKSCDKTHTCPPCPAPELRGGPKVFLFPPKPKDTLYISRTPEVTCVVVDVSHEDPEVKFNWYVDGVEVHNAKTKPREEQYNSTYRVVSVLTVLHQDWLNGKEYKCKVSNKALPAPIEKTISKAKGQPREPQVYTLPPSRDELTKNQVSLTCLVKGFYPSDIAVEWESNGQPENNYKTTPPVLDSDGSFFLYSKLTVDKSRWQQGNVFSCSVMHEALHYHYTQKSLSLSP
chain 2: not shown
Which Kd [17] does the source give for B6 here?
Its Kd is 310 nM.

What about the binding amount [10] of the same binder?
Its binding amount is -20.3 RU.

And the binding amount [11]?
The binding amount was -3.8 RU.

What about the binding amount [12] of the same binder?
Its binding amount is 0.6 RU.

And the binding amount [13]?
The binding amount was -4.5 RU.

What about the Kd [14] of the same binder?
The Kd was 310 nM.

B7: FH4-IgG1 (antibody, V domains shown)
VH: QVQLVQSGAEVKKPGSSVKVSCKASGGTFSSYAISWVRQAPGQGLEWMGGIIPIFGTANYAQKFQGRVTITADESTSTAYMELSSLRSEDTAVYYCARERDYYDSSGYYDAFDIWGQGTMVTVSS
VL: ETTVTQSPSFLSASVGDRVTITCITTTDIDDDMNWFQQEPGKAPKLLISEGNILRPGVPSRFSSSGYGTDFTLTISKLQPEDFATYYCLQSDNLPFTFGQGTKLEIKR
What does the source list for B7?
Kd [18]: ≥ 34000 nM; Kd [19]: ~34000 nM

B8: 6RL#9-IgG1 (antibody, V domains shown)
VH: QVQLVQSGAEVKKPGASVKVSCKASGYTFTSYYMHWVRQAPGQGLEWMGIINPSGGSTSYAQKFQGRVTMTRDTSTSTVYMELSSLRSEDTAVYYCARDDPGGGEYYFDYWGQGTLVTVSS
VL: QSVLTQPPSVSGAPGQRVTISCTGSRSNMGAGYDVHWYQLLPGAAPKLLISHNTHRPSGVPDRFSGSKSGASASLAITGLQAEDEADYYCQSHDSSLSAVVFGGGTKLTVLS
How did the Kd [18] turn out when B8 was run?
The Kd was ≥ 31000 nM.

And the Kd [19]?
Its Kd is ~31000 nM.
